Data from article PMC9173704.

Key:
[1] = molecular target: plasminogen (Homo sapiens) (UniProt P00747); details: cited from earlier work
[2] = molecular target: recombinant streptococcal enolase (Sen) from GAS strain AP53 (Streptococcus pyogenes (GAS) strain AP53)
[3] = molecular target: recombinant streptococcal enolase (Sen) from GAS strain AP53 (Streptococcus pyogenes (GAS) strain AP53); experiment: ELISA; Sen coated on high protein binding 96-well plates overnight at 4°C; hPg added at 25°C for 1 h; detected with HRP-conjugated monoclonal mouse-anti hPg; saturation curve
[4] = molecular target: recombinant streptococcal enolase (Sen) from GAS strain AP53 (Streptococcus pyogenes (GAS) strain AP53); experiment: SPR; Sen amine-coupled to a CM-5 chip (~1,000 RU); hPg as analyte, 9 to 2,400 nM; 25°C, HBS-EP+ (10 mM Na-Hepes/150 mM NaCl/3 mM EDTA/0.05% polysorbate 20, pH 7.4); equilibrium (affinity) fit
[5] = molecular target: recombinant mature PAM (Asn1-Gln351, plus (His)6) (Streptococcus pyogenes (GAS) strain AP53) (UniProt P49054)
[6] = molecular target: recombinant streptococcal enolase (Sen) from GAS strain AP53 (Streptococcus pyogenes (GAS) strain AP53); experiment: SEC-MALS; each protein 100 μl of 1 mg/ml on a WTC-030S5 column, PBS, pH 7.4, flow rate 0.5 ml/min
[7] = molecular target: recombinant streptococcal enolase (Sen) from GAS strain AP53 (Streptococcus pyogenes (GAS) strain AP53); experiment: AUC; sedimentation velocity, 20°C, 50 mM Na phosphate/0.1 M NaCl, pH 7.4; 30,000 rpm for Sen, 35,000 rpm for hEno; three protein dilutions; no concentration-dependent dissociation down to at least 0.1 mg/ml

Sequence of recombinant streptococcal enolase (Sen) from GAS strain AP53 (Streptococcus pyogenes (GAS) strain AP53) (A2RFE3 whole entry): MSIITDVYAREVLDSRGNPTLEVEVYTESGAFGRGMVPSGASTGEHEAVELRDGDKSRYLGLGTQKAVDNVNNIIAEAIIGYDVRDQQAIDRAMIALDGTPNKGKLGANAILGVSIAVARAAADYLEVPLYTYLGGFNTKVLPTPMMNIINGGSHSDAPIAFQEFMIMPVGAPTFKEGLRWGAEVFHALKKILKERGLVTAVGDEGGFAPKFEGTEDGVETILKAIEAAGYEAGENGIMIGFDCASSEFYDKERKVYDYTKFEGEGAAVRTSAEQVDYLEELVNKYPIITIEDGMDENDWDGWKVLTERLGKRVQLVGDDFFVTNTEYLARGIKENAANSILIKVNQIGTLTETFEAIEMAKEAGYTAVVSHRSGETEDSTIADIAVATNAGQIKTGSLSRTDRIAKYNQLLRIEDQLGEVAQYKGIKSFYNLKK
Sequence of UniProt P00747 (P00747 20-810): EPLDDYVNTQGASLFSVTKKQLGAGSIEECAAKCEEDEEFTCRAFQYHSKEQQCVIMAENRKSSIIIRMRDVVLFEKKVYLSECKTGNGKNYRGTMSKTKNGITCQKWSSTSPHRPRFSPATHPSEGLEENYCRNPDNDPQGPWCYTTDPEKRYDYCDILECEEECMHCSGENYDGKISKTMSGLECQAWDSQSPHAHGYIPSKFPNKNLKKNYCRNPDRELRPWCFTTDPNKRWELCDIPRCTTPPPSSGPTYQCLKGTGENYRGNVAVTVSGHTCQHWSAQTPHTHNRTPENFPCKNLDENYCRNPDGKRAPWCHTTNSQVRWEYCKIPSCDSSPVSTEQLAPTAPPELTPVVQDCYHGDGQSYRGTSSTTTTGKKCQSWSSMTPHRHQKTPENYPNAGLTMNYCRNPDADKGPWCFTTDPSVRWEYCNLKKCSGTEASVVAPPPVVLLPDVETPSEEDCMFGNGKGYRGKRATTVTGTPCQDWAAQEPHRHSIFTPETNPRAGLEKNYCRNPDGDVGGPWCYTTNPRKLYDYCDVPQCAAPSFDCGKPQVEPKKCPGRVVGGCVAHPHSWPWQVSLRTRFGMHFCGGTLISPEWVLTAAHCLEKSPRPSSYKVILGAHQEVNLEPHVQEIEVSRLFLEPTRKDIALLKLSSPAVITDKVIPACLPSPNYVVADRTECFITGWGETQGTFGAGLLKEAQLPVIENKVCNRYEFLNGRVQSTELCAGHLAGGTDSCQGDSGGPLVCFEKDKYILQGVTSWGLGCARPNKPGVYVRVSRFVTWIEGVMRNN

plasminogen-binding M-protein (PAM) (from UniProt P49054)
Kd [1]: 1 nM

recombinant human plasminogen (hPg) (natural protein)
rate of activation of hPg by tPA with Sen bound to DOPG vesicles against vesicles without Sen, hydrolysis of S2251 [2]: 6 to 8 fold
C50 [3]: 125 nM
C50 [4]: 111 nM
rate of activation of hPg by tPA on PAM-coated plates against free hPg, hydrolysis of S2251 [5]: 2.5 fold

recombinant streptococcal enolase (Sen) from GAS strain AP53 (enzyme)
stoichiometry N [6]: 8
stoichiometry N [7]: 8
